Source: patent publication US20080081043A1 (published 2008)

Target: T1, human CD48 (full-length hCD48), on cells (human, UniProt P09326 27-220)
T1 construct: also called membrane-associated CD48
T1 sequence: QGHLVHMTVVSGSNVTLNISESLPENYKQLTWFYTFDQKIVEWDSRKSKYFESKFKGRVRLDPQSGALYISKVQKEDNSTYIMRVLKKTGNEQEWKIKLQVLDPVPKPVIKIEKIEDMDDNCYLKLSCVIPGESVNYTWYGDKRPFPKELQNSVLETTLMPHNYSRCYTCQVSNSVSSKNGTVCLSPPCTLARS
Test: not told at this place (summary sentence in the description)
Method: Equilibrium binding assays were performed on transiently expressed hCD48. Full-length hCD48 in the expression vector pDC409 was transfected into CV-1/EBNA cells and these cells were diluted 1:20 into a carrier cell (Daudi). Serial dilutions of NAIL-Fc in binding media (RPMI 1640), 2.5% bovine serum albumin, […] HEPES, 0.02% Na azide [pH 7.2]) were incubated with cells (combination of carrier cells and transiently expressed cells 2.5×10⁶ combined cells/well) for 2 hours at 4° C. in a total of […] in a 96-well microtiter plate. The plate was centrifuged and the supernatants were aspirated. One-hundred fifty microliters of ¹²⁵I goat anti-human IgG Fcγ (Jackson Immunoresearch Laboratories, Inc., West Grove, Pa.; cat #109-006-098) was added to each well and cells were incubated another 1 hour at 4° C. Free and bound probes were separated by the pthalate oil separation method, essentially as described (Dower et al., J.Immunol. 132:751-758, 1984). Goat anti-human IgG Fcγ was labeled with […] using solid phase chloramine T analog (Iodogen; Pierce Chemical, Rockford, Ill.) to a specific radioactivity of 2.11×10¹⁵ cpm/mmol. […] No binding of C1.7-Fc or CD48-Fc proteins could be detected on nontransfected cells.

Kd: ~0.1 nM
B1: NAIL-Fc polypeptide (soluble NAIL-Fc fusion protein) (Fc fusion)
chain: CQGSADHVVSISGVPLQLQPNSIQTKVDSIAWKKLLPSQNGFHHILKWENGSLPSNTSNDRFSFIVKNLSLLIKAAQQQDSGLYCLEVTSISGKVQTATFQVFVFDKVEKPRLQGQGKILDRGRCQVALSCLVSRDGNVSYAWYRGSKLIQTAGNLTYLDEEVDINGTHTYTCNVSNPVSWESHTLNLTQDCQNAHQEFRRSCDKTHTCPPCPAPEAEGAPSVFLFPPKPKDTLMISRTPEVTCVVVDVSHEDPEVKFNWYVDGVEVHNAKTKPREEQYNSTYRVVSVLTVLHQDWLNGKEYKCKVSNKALPAPIEKTISKAKGQPREPQVYTLPPSREEMTKNQVSLTCLVKGFYPSDIAVEWESNGQPENNYKTTPPVLDSDGSFFLYSKLTVDKSRWQQGNVFSCSVMHEALHNHYTQKSLSLSPGK
notes: also called C1.7-Fc; soluble NAIL polypeptide
